According to US20130012432A1 (Novo Nordisk, published 2013):
Positions of bridges follow the written chain, without caps; N, C: chain ends. Non-standard residues stand in square brackets, D forms with d. Groups on a side chain read outwards from the residue. Primed or numbered codes have the meaning given here. *: point of attachment. X5 = NH(2-(2-(2-(17-carboxyheptadecanoylamino)ethoxy)ethoxy)ethyl), O=C(O)CCCCCCCCCCCCCCCCC(=O)NCCOCCOCCN*; X6 = (2-(2-(17-carboxyheptadecanoylamino)ethoxy)ethoxy)acetyl, O=C(O)CCCCCCCCCCCCCCCCC(=O)NCCOCCOCC(=O)*; X3 = (2-(2-(15-carboxypentadecanoylamino)ethoxy)ethoxy)acetyl, O=C(O)CCCCCCCCCCCCCCC(=O)NCCOCCOCC(=O)*; X4 = (2-(2-(16-carboxyhexadecanoylamino)ethoxy)ethoxy)acetyl, O=C(O)CCCCCCCCCCCCCCCC(=O)NCCOCCOCC(=O)*; biscarboxymethyl = Lys(biscarboxymethyl) = Nepsilon-bis(carboxymethyl)-L-lysine; Palmitoyl(16-(5-tetrazolyl)) = O=C(CCCCCCCCCCCCCCCc1nnn[nH]1)*; biscarboxymethyl(3) = Nepsilon-bis(carboxymethyl) on Lys; Lys(CH2CO2H)2 = N[C@@H](CCCCN(CC(=O)O)CC(=O)O)C(=O)O; C17 diacid = O=C(O)CCCCCCCCCCCCCCCC(=O)*; C14 diacid = O=C(O)CCCCCCCCCCCCC(=O)*; Hyp = O=C(O)[C@@H]1C[C@@H](O)CN1; NTA = O=C(O)CN(CC(=O)O)CC(=O)*; hCys = N[C@@H](CCS)C(=O)O; Orn = NCCC[C@H](N)C(=O)O; Dab = NCC[C@H](N)C(=O)O; Dap = NC[C@H](N)C(=O)O; AEEA = NCCOCCOCC(=O)O

B1: Ac-c[Orn-His-D-Phe-Arg-Trp-Glu]-Pro-Ser-Lys-Glu-Glu-Ser-Ser-Glu-Lys({2-[2-(16-carboxyhexadecanoylamino)ethoxy]ethoxy}acetyl)-NH2 (peptide)
peptide: Ac-[Orn]H[dF]RWEPSKEESSEK([AEEA-C17 diacid])-NH2
modifications: lactam 1-6
SMILES: CC(=O)N[C@H]1CCCNC(=O)CC[C@@H](C(=O)N2CCC[C@H]2C(=O)N[C@@H](CO)C(=O)N[C@@H](CCCCN)C(=O)N[C@@H](CCC(=O)O)C(=O)N[C@@H](CCC(=O)O)C(=O)N[C@@H](CO)C(=O)N[C@@H](CO)C(=O)N[C@@H](CCC(=O)O)C(=O)N[C@@H](CCCCNC(=O)COCCOCCNC(=O)CCCCCCCCCCCCCCCC(=O)O)C(N)=O)NC(=O)[C@H](Cc2c[nH]c3ccccc23)NC(=O)[C@H](CCCNC(=N)N)NC(=O)[C@@H](Cc2ccccc2)NC(=O)[C@H](Cc2c[nH]cn2)NC1=O
B2: Ac-c[homoCys-His-D-Phe-Arg-Trp-Cys]-Pro-Pro-Lys-Asp-Dap(BCMA)-Lys({2-[2-(13-carboxytridecanoylamino)ethoxy]ethoxy}acetyl)-NH2 (peptide)
peptide: Ac-[hCys]H[dF]RWCPPKD[Dap](NTA)K([AEEA-C14 diacid])-NH2
modifications: disulfide 1-6
SMILES: CC(=O)N[C@H]1CCSSC[C@@H](C(=O)N2CCC[C@H]2C(=O)N2CCC[C@H]2C(=O)N[C@@H](CCCCN)C(=O)N[C@@H](CC(=O)O)C(=O)N[C@@H](CNC(=O)CN(CC(=O)O)CC(=O)O)C(=O)N[C@@H](CCCCNC(=O)COCCOCCNC(=O)CCCCCCCCCCCCC(=O)O)C(N)=O)NC(=O)[C@H](Cc2c[nH]c3ccccc23)NC(=O)[C@H](CCCNC(=N)N)NC(=O)[C@@H](Cc2ccccc2)NC(=O)[C@H](Cc2c[nH]cn2)NC1=O
B3: Ac-c[Lys-His-D-Phe-Arg-Trp-Asp]-Pro-Pro-Arg-Asp-Lys(biscarboxymethyl)-Lys[(2-{2-[16-(tetrazol-5-yl)hexadecanoylamino]ethoxy}ethoxy)acetyl]-NH2 (peptide)
peptide: Ac-KH[dF]RWDPPRD[Lys(CH2CO2H)2]K([AEEA-Palmitoyl(16-(5-tetrazolyl))])-NH2
modifications: lactam 1-6
SMILES: CC(=O)N[C@H]1CCCCNC(=O)C[C@@H](C(=O)N2CCC[C@H]2C(=O)N2CCC[C@H]2C(=O)N[C@@H](CCCNC(=N)N)C(=O)N[C@@H](CC(=O)O)C(=O)N[C@@H](CCCCN(CC(=O)O)CC(=O)O)C(=O)N[C@@H](CCCCNC(=O)COCCOCCNC(=O)CCCCCCCCCCCCCCCc2nnn[nH]2)C(N)=O)NC(=O)[C@H](Cc2c[nH]c3ccccc23)NC(=O)[C@H](CCCNC(=N)N)NC(=O)[C@@H](Cc2ccccc2)NC(=O)[C@H](Cc2c[nH]cn2)NC1=O
B4: Ac-c[Lys-His-D-Phe-Arg-Trp-Glu]-Pro-Pro-Arg-Asp-Lys(biscarboxymethyl)-Lys[(2-{2-[16-(tetrazol-5-yl)hexadecanoylamino]ethoxy}ethoxy)acetyl]-NH2 (peptide)
peptide: Ac-KH[dF]RWEPPRD[Lys(CH2CO2H)2]K([AEEA-Palmitoyl(16-(5-tetrazolyl))])-NH2
modifications: lactam 1-6
SMILES: CC(=O)N[C@H]1CCCCNC(=O)CC[C@@H](C(=O)N2CCC[C@H]2C(=O)N2CCC[C@H]2C(=O)N[C@@H](CCCNC(=N)N)C(=O)N[C@@H](CC(=O)O)C(=O)N[C@@H](CCCCN(CC(=O)O)CC(=O)O)C(=O)N[C@@H](CCCCNC(=O)COCCOCCNC(=O)CCCCCCCCCCCCCCCc2nnn[nH]2)C(N)=O)NC(=O)[C@H](Cc2c[nH]c3ccccc23)NC(=O)[C@H](CCCNC(=N)N)NC(=O)[C@@H](Cc2ccccc2)NC(=O)[C@H](Cc2c[nH]cn2)NC1=O
B5: Ac-c[Lys-His-D-Phe-Arg-Trp-Asp]-Pro-Pro-His-Glu-Lys(biscarboxymethyl)-Lys({2-[2-(16-carboxyhexadecanoylamino)ethoxy]ethoxy}acetyl)-NH2 (peptide)
peptide: Ac-KH[dF]RWDPPHE[Lys(CH2CO2H)2]K([AEEA-C17 diacid])-NH2
modifications: lactam 1-6
SMILES: CC(=O)N[C@H]1CCCCNC(=O)C[C@@H](C(=O)N2CCC[C@H]2C(=O)N2CCC[C@H]2C(=O)N[C@@H](Cc2c[nH]cn2)C(=O)N[C@@H](CCC(=O)O)C(=O)N[C@@H](CCCCN(CC(=O)O)CC(=O)O)C(=O)N[C@@H](CCCCNC(=O)COCCOCCNC(=O)CCCCCCCCCCCCCCCC(=O)O)C(N)=O)NC(=O)[C@H](Cc2c[nH]c3ccccc23)NC(=O)[C@H](CCCNC(=N)N)NC(=O)[C@@H](Cc2ccccc2)NC(=O)[C@H](Cc2c[nH]cn2)NC1=O
B6: Ac-c[Lys-His-D-Phe-Arg-Trp-Asp]-Pro-Ser-His-Glu-Lys(biscarboxymethyl)-Lys({2-[2-(16-carboxyhexadecanoylamino)ethoxy]ethoxy}acetyl)-NH2 (peptide)
peptide: Ac-KH[dF]RWDPSHE[Lys(CH2CO2H)2]K([AEEA-C17 diacid])-NH2
modifications: lactam 1-6
SMILES: CC(=O)N[C@H]1CCCCNC(=O)C[C@@H](C(=O)N2CCC[C@H]2C(=O)N[C@@H](CO)C(=O)N[C@@H](Cc2c[nH]cn2)C(=O)N[C@@H](CCC(=O)O)C(=O)N[C@@H](CCCCN(CC(=O)O)CC(=O)O)C(=O)N[C@@H](CCCCNC(=O)COCCOCCNC(=O)CCCCCCCCCCCCCCCC(=O)O)C(N)=O)NC(=O)[C@H](Cc2c[nH]c3ccccc23)NC(=O)[C@H](CCCNC(=N)N)NC(=O)[C@@H](Cc2ccccc2)NC(=O)[C@H](Cc2c[nH]cn2)NC1=O
B7: Ac-c[Lys-His-D-Phe-Arg-Trp-Glu]-Pro-Pro-His-Glu-Lys(biscarboxymethyl)-Lys({2-[2-(16-carboxyhexadecanoylamino)ethoxy]ethoxy}acetyl)-NH2 (peptide)
peptide: Ac-KH[dF]RWEPPHE[Lys(CH2CO2H)2]K([AEEA-C17 diacid])-NH2
modifications: lactam 1-6
SMILES: CC(=O)N[C@H]1CCCCNC(=O)CC[C@@H](C(=O)N2CCC[C@H]2C(=O)N2CCC[C@H]2C(=O)N[C@@H](Cc2c[nH]cn2)C(=O)N[C@@H](CCC(=O)O)C(=O)N[C@@H](CCCCN(CC(=O)O)CC(=O)O)C(=O)N[C@@H](CCCCNC(=O)COCCOCCNC(=O)CCCCCCCCCCCCCCCC(=O)O)C(N)=O)NC(=O)[C@H](Cc2c[nH]c3ccccc23)NC(=O)[C@H](CCCNC(=N)N)NC(=O)[C@@H](Cc2ccccc2)NC(=O)[C@H](Cc2c[nH]cn2)NC1=O
B8: Ac-c[homoCys-His-D-Phe-Arg-Trp-Cys]-Pro-Pro-Lys-Asp-Dap(BCMA)-Lys[(2-{2-[16-(tetrazol-5-yl)hexadecanoylamino]ethoxy}ethoxy)acetyl]-OH (peptide)
peptide: Ac-[hCys]H[dF]RWCPPKD[Dap](NTA)K([AEEA-Palmitoyl(16-(5-tetrazolyl))])-OH
modifications: disulfide 1-6
SMILES: CC(=O)N[C@H]1CCSSC[C@@H](C(=O)N2CCC[C@H]2C(=O)N2CCC[C@H]2C(=O)N[C@@H](CCCCN)C(=O)N[C@@H](CC(=O)O)C(=O)N[C@@H](CNC(=O)CN(CC(=O)O)CC(=O)O)C(=O)N[C@@H](CCCCNC(=O)COCCOCCNC(=O)CCCCCCCCCCCCCCCc2nnn[nH]2)C(=O)O)NC(=O)[C@H](Cc2c[nH]c3ccccc23)NC(=O)[C@H](CCCNC(=N)N)NC(=O)[C@@H](Cc2ccccc2)NC(=O)[C@H](Cc2c[nH]cn2)NC1=O
B9: Ac-c[Glu-His-D-Phe-Arg-Trp-Lys]-Pro-Pro-Arg-Asp-Lys(biscarboxymethyl)-Lys[(2-{2-[16-(tetrazol-5-yl)hexadecanoylamino]ethoxy}ethoxy)acetyl]-NH2 (peptide)
peptide: Ac-EH[dF]RWKPPRD[Lys(CH2CO2H)2]K([AEEA-Palmitoyl(16-(5-tetrazolyl))])-NH2
modifications: lactam 1-6
SMILES: CC(=O)N[C@H]1CCC(=O)NCCCC[C@@H](C(=O)N2CCC[C@H]2C(=O)N2CCC[C@H]2C(=O)N[C@@H](CCCNC(=N)N)C(=O)N[C@@H](CC(=O)O)C(=O)N[C@@H](CCCCN(CC(=O)O)CC(=O)O)C(=O)N[C@@H](CCCCNC(=O)COCCOCCNC(=O)CCCCCCCCCCCCCCCc2nnn[nH]2)C(N)=O)NC(=O)[C@H](Cc2c[nH]c3ccccc23)NC(=O)[C@H](CCCNC(=N)N)NC(=O)[C@@H](Cc2ccccc2)NC(=O)[C@H](Cc2c[nH]cn2)NC1=O
B10: Ac-c[Orn-Glu-His-D-Phe-Arg-Trp-Gly-Asp]-Pro-Ser-Lys-Glu-Glu-Ser-Ser-Lys({2-[2-(16-carboxyhexadecanoylamino)ethoxy]ethoxy}acetyl)-NH2 (peptide)
peptide: Ac-[Orn]EH[dF]RWGDPSKEESSK(X4)-NH2
modifications: lactam 1-8
SMILES: CC(=O)N[C@H]1CCCNC(=O)C[C@@H](C(=O)N2CCC[C@H]2C(=O)N[C@@H](CO)C(=O)N[C@@H](CCCCN)C(=O)N[C@@H](CCC(=O)O)C(=O)N[C@@H](CCC(=O)O)C(=O)N[C@@H](CO)C(=O)N[C@@H](CO)C(=O)N[C@@H](CCCCNC(=O)COCCOCCNC(=O)CCCCCCCCCCCCCCCC(=O)O)C(N)=O)NC(=O)CNC(=O)[C@H](Cc2c[nH]c3ccccc23)NC(=O)[C@H](CCCNC(=N)N)NC(=O)[C@@H](Cc2ccccc2)NC(=O)[C@H](Cc2c[nH]cn2)NC(=O)[C@H](CCC(=O)O)NC1=O
B11: Ac-c[Orn-His-D-Phe-Arg-Trp-Glu]-Pro-Ser-Ser-Ser-Glu-Glu-Ser-Ser-Lys({2-[2-(16-carboxyhexadecanoylamino)ethoxy]ethoxy}acetyl)-NH2 (peptide)
peptide: Ac-[Orn]H[dF]RWEPSSSEESSK([AEEA-C17 diacid])-NH2
modifications: lactam 1-6
SMILES: CC(=O)N[C@H]1CCCNC(=O)CC[C@@H](C(=O)N2CCC[C@H]2C(=O)N[C@@H](CO)C(=O)N[C@@H](CO)C(=O)N[C@@H](CO)C(=O)N[C@@H](CCC(=O)O)C(=O)N[C@@H](CCC(=O)O)C(=O)N[C@@H](CO)C(=O)N[C@@H](CO)C(=O)N[C@@H](CCCCNC(=O)COCCOCCNC(=O)CCCCCCCCCCCCCCCC(=O)O)C(N)=O)NC(=O)[C@H](Cc2c[nH]c3ccccc23)NC(=O)[C@H](CCCNC(=N)N)NC(=O)[C@@H](Cc2ccccc2)NC(=O)[C@H](Cc2c[nH]cn2)NC1=O

These binders were tested against T1, human MC4 receptor (human, UniProt P32245 1-332) (assay: 125I-NDP-α-MSH displacement, BHK-human MC4 membranes (Assay V);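 further: Filter-retained radioactivity read by gamma counting, with affinity obtained through non-linear regression fitting of the binding curves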).
T1 construct: whole, on cells; Assayed as membranes of BHK cells stably expressing the receptor; also called melanocortin receptor subtype 4; melanocortin receptor 4
T1 sequence (P32245 whole entry): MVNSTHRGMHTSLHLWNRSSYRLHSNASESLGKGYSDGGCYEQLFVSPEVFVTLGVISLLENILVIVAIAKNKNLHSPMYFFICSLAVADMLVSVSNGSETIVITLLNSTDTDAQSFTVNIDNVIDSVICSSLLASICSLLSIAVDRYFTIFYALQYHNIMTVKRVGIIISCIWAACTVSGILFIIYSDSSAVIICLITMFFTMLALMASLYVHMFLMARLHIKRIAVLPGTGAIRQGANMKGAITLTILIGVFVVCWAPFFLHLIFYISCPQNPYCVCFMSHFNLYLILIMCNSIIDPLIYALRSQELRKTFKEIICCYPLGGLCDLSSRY
Experimental: The membranes were prepared from frozen or fresh cells that were homogenized in 20 mM HEPES pH 7.1, 5 mM MgCl₂ and 1 mg/ml bacitracin and centrifuged at 15000 rpm at 4° C., 10 min in a Sorvall RC 5B plus, SS-34 rotor. The supernatant was discarded, and the pellets were re-suspended in buffer, homogenized and centrifuged two more times. The final pellets were resuspended in the buffer mentioned above, and the protein concentration was measured and adjusted with buffer to 14 to 17 mg/ml and the membrane preparation were kept at −80° C. until assay. The assay was run directly on a dilution of this cell membrane suspension, without any further preparation. The BHK cell membranes are kept at −80° C. until assay, and the assay is run directly on a dilution of this cell membrane suspension, without further preparation. The suspension is diluted to give maximally 10% specific binding, i.e. to approx. 50-100 fold dilution. […] Test compounds were dissolved in DMSO and diluted in binding buffer. Radiolabelled ligand and membranes were diluted in binding buffer. The incubation was stopped by dilution with 2×100 μl ice-cold 0.9% NaCl. The radioactivity retained on the filters was counted using a Cobra II auto gamma counter.
The data were analysed by non-linear regression analysis of binding curves, using the Windows™ program GraphPad™ Prism (GraphPad Software, USA).

Binder | Ki
B1 | 38 nM
B2 | 4.2 nM
Ac-EH[dF]RW[Dab][Hyp][Hyp]RDK(biscarboxymethyl(3))K([AEEA-Palmitoyl(16-(5-tetrazolyl))])-NH2 (lactam 1-6) | 105 nM
Ac-EH[dF]RW[Dap]PPRDK(biscarboxymethyl(3))K([AEEA-Palmitoyl(16-(5-tetrazolyl))])-NH2 (lactam 1-6) | 13 nM
Ac-DH[dF]RW[Dap]PPRDK(biscarboxymethyl(3))K([AEEA-Palmitoyl(16-(5-tetrazolyl))])-NH2 (lactam 1-6) | 71.5 nM
B3 | 3.87 nM
B4 | 179 nM
B5 | 17 nM
B6 | 25 nM
B7 | 348 nM
Ac-EH[dF]RW[Dap][Hyp][Hyp]RDK(biscarboxymethyl(3))K([AEEA-Palmitoyl(16-(5-tetrazolyl))])-NH2 (lactam 1-6) | 17 nM
Ac-EH[dF]RW[Orn]PPDK(biscarboxymethyl)K(X3)-NH2 (lactam 1-6) | 64 nM
B8 | 6.4 nM
B9 | 24 nM
Ac-EH[dF]RW[Orn]PPDK(biscarboxymethyl)K(X6)-NH2 (lactam 1-6) | 8.6 nM
Ac-[Dab]H[dF]RWDPPREK(biscarboxymethyl(3))SS-X5 (lactam 1-6) | 12.5 nM
B10 | 125 nM
B11 | 25 nM
Ac-EQ[dF]RW[Orn]PPRDK(biscarboxymethyl(3))K([AEEA-Palmitoyl(16-(5-tetrazolyl))])-NH2 (lactam 1-6) | 58 nM
